Reference: patent publication US20260209346A1 (LTZ THERAPEUTICS, published 2026)

How the values were obtained:
[1] = target: CD79b endogenously expressed on the cell surface (malignant B cell lines, normal B cells in PBMC, CLL patients' B lymphocytes) (human) (UniProt P40259); assay: flow cytometry on SU-DHL-4 cells; anti-human IgG1-PE; MFI (PE); table under the graph; fit of a flat control curve
[2] = target: CD79b endogenously expressed on the cell surface (malignant B cell lines, normal B cells in PBMC, CLL patients' B lymphocytes) (human) (UniProt P40259); assay: flow cytometry on Nalm-6 cells; anti-human IgG1-PE; MFI (PE); table under the graph; fit of a flat control curve
[3] = target: CD79b endogenously expressed on the cell surface (malignant B cell lines, normal B cells in PBMC, CLL patients' B lymphocytes) (human) (UniProt P40259); assay: flow cytometry on PBMC of Donor 2890, B cells marked with CD19-BV421; anti-human IgG1-PE; MFI (PE); table under the graph; fit of a flat control curve
[4] = target: CD79b endogenously expressed on the cell surface (malignant B cell lines, normal B cells in PBMC, CLL patients' B lymphocytes) (human) (UniProt P40259); assay: flow cytometry on Ramos cells; anti-human IgG1-PE; MFI (PE); table under the graph; fit of a flat control curve
[5] = target: CD79b endogenously expressed on the cell surface (malignant B cell lines, normal B cells in PBMC, CLL patients' B lymphocytes) (human) (UniProt P40259); assay: flow cytometry on BJAB cells; anti-human IgG1-PE; MFI (PE); table under the graph; fit of a flat control curve
[6] = target: CD79b endogenously expressed on the cell surface (malignant B cell lines, normal B cells in PBMC, CLL patients' B lymphocytes) (human) (UniProt P40259); assay: flow cytometry quadrant plot, untransfected NALM6 cells; Anti-CD79b-PE against Anti-IgM-APC
[7] = target: T1, CD79b endogenously expressed on the cell surface (malignant B cell lines, normal B cells in PBMC, CLL … (human, UniProt P40259 29-229)); assay: flow cytometry on Daudi cells; anti-human IgG1-PE; MFI (PE); table under the graph
T1 construct: whole, on cells; On cells CD79b stands in the B-cell receptor complex with CD79a and surface Ig; also called cell surface CD79b; endogenous CD79b
T1 sequence (looked up): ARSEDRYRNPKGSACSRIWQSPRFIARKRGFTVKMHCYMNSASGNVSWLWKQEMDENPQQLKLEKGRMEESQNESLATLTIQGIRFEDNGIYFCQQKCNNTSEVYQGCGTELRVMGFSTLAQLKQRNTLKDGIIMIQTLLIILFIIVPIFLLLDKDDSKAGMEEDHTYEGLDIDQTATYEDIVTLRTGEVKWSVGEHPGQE
Description: (§1) The binding affinities of anti-CD79b antibodies to malignant B cell lines were tested. […] The cells were then incubated with 100 μl anti-human IgG1-PE (Invitrogen, cat: 12-4998-82), 1:1000 dilution, for 30 min on ice, washed with 200 ul PBS for three times before flow cytometry analysis.

[8] = target: T1, CD79b endogenously expressed on the …; assay: flow cytometry on PBMC of Donor 2235, B cells marked with CD19-BV421; anti-human IgG1-PE; MFI (PE); table under the graph
Description: (§2) The binding affinities of anti-CD79b antibodies to endogenous B cells were tested. […] The cells were then incubated with […] mixture of anti-human IgG1-PE (Invitrogen, Cat #: 12-4998-82), 1:1000 dilution; CD19-BV421 (Biolegend, Cat #:302230, 1:400 dilution) for 30 min on ice, and washed with 200 ul PBS for three times before flow cytometry analysis.

[9] = target: T1, CD79b endogenously expressed on the …; assay: flow cytometry on SU-DHL-4 cells; anti-human IgG1-PE; MFI (PE); table under the graph
Description: as §1

[10] = target: T2, human CD79b recombinant protein (human, UniProt P40259 29-159); assay: ELISA, coated human CD79b recombinant protein
T2 construct: also called human CD79b ECD antigen; recombinant human CD79b ECD
T2 sequence: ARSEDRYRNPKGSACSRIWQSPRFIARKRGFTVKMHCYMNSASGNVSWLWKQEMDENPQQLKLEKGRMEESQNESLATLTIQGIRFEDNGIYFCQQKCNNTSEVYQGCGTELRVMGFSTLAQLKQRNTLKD
Description: (§3) Binding affinities of anti-CD79b antibodies to human and cynomolgus CD79b recombinant proteins were tested by ELISA. 1 ug/ml (in PBS buffer) of human or cynomolgus CD79b recombinant proteins were coated on an ELISA plate overnight. ELISA plates were washed and blocked with blocking buffer (PBS+1% BSA) followed by incubation with serially diluted anti-CD79b primary antibodies. Anti-CD79b antibody binding was quantified using an anti-human IgG HRP secondary antibody (Biolegend Catalog #410902) and HRP substrate.

[11] = target: T1, CD79b endogenously expressed on the …; assay: flow cytometry on PBMC of CLL Donor 0255 (B lymphocytes); PE goat anti-human IgG Fc; MFI PE
Description: To determine the binding affinities of the anti-CD79b antibodies to cell surface CD79b on Chronic Lymphocytic Leukemia (CLL) patient's B lymphocytes, a cell-based binding assay was conducted. […] CLL patient PBMCs were purchased from the company Bioscience. […] Specifically, 2.5×10⁴ PBMC cells in 50 μl FACS buffer (1×PBS+2% BSA+2 mM EDTA) were seeded in each well of a V bottom 96-well plate. […] The mixture was incubated on ice for 30 minutes, and then washed twice with FACS buffer. The cells were re-suspended in 100 μl FACS buffer containing PE conjugated goat anti-human IgG Fc (1:1000) and anti-human CD19 (BV421), and incubated for 30 minutes on ice in darkness. After washing twice with FACS buffer, the cells were re-suspended in 100 μl of FACS buffer and analyzed with a Cytek cytometer.

[12] = target: T1, CD79b endogenously expressed on the …; assay: flow cytometry on BJAB cells; anti-human IgG1-PE; MFI (PE); table under the graph
Description: as §1

[13] = target: T3, cynomolgus CD79b recombinant protein (cynomolgus); assay: ELISA, coated cynomolgus CD79b recombinant protein
T3 chain: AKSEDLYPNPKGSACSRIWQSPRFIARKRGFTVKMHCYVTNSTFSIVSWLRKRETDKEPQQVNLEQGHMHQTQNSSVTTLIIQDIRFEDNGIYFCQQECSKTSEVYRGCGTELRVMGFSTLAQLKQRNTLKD
Description: as §3

[14] = target: T1, CD79b endogenously expressed on the …; assay: flow cytometry on a cell line expressing endogenous CD79b (not named on the sheet or in the text); MFI (PE)
[15] = target: T1, CD79b endogenously expressed on the …; assay: flow cytometry on Nalm-6 cells; anti-human IgG1-PE; MFI (PE); table under the graph
Description: as §1

[16] = target: T2, human CD79b recombinant protein; assay: ELISA on recombinant human CD79b ECD; A 450nm
[17] = target: T1, CD79b endogenously expressed on the …; assay: flow cytometry on PBMC of Donor 2890, B cells marked with CD19-BV421; anti-human IgG1-PE; MFI (PE); table under the graph
Description: as §2

[18] = target: T1, CD79b endogenously expressed on the …; assay: flow cytometry on Ramos cells; anti-human IgG1-PE; MFI (PE); table under the graph
Description: as §1

[19] = target: T1, CD79b endogenously expressed on the …; assay: flow cytometry on PBMC of Donor 356, B cells marked with CD19-BV421; anti-human IgG1-PE; MFI (PE); table under the graph (the graph's legend prints ch44D2)
Description: as §2

[20] = target: T1, CD79b endogenously expressed on the …; assay: flow cytometry on PBMC of Donor 889, B cells marked with CD19-BV421; anti-human IgG1-PE; MFI (PE); table under the graph
Description: as §2

[21] = target: T1, CD79b endogenously expressed on the …; assay: flow cytometry on PBMC of Donor 356, B cells marked with CD19-BV421; anti-human IgG1-PE; MFI (PE); table under the graph
Description: as §2

[22] = target: T2, human CD79b recombinant protein; assay: BLI; antibody at 10 ug/ml captured on anti-human IgG Fc probes, hCD79b in solution; row for 9.14 nM hCD79b
[23] = target: T2, human CD79b recombinant protein; assay: BLI; antibody at 10 ug/ml captured on anti-human IgG Fc probes, hCD79b in solution; same value printed in the rows for 18.3 and 9.14 nM hCD79b
Description: (§4) Binding affinities of anti-CD79b antibodies to human CD79b recombinant proteins were tested by BLI. 10 ug/ml of anti-CD79b antibodies were captured by anti-human IgG Fc probes (Gator Bio Catalog #160024). […] Absolute kD was determined by applying a 1:1 binding model (Global Rmax unlinked).

[24] = target: T2, human CD79b recombinant protein; assay: BLI, antibody captured on anti-human IgG Fc probes, human CD79b in solution, 1:1 model
Description: as §4

Molecule IgG1 control (antibody) has an EC50 [1] of 0.17 nM, an EC50 [2] of 8.17 nM and an EC50 [3] of 0.163 nM. For the same molecule, the EC50 [4] was 0.01 nM and the EC50 [5] was 0.04 nM.

With Isotype (antibody) the Q3 (percent of cells Anti-CD79b-PE positive, Anti-IgM-APC negative) [6] was 1.16.

B1: ch44G2 (antibody, human IgG1, kappa, V domains shown)
VH: QSVRETGGGLVQPGGSLKLSCKASGFTINIDYWISWVRQAPGKGLEWIGIIDPGDGTTYFAIWVSGRFTISFDNTQNTVDLQMNSLTAADTATYFCVREFSASAYQYDLWGPGTLVTVSS
VL: DLVMTQTPSSVSAAVGGTVSINCRASEDIENYLAWYQQKPGQPPKLLIYRASTLSSGVSSRFSGSGSGTEFTLTISGVQPDDAATYYCQQGYRNSNVDNPFGGGTEMVVKR
notes: Rabbit/human chimeric IgG1 kappa; also called chimeric 44G2
B1 gave an EC50 [7] of 0.79 nM, an EC50 [8] of 0.727 nM and an EC50 [9] of 0.72 nM. For the same molecule, the IC50 [10] was 0.63 nM, the “EC50 (read off the curve)” value [11] was ~0.8 nM and the EC50 [12] was 0.67 nM. For the same molecule, the IC50 [13] was 3 nM, the “EC50 (read off the curve)” value [14] was ~0.2 nM and the EC50 [15] was 1.59 nM. For the same molecule, the “EC50 (read off the curve)” value [16] was ~0.5 nM, the EC50 [17] was 0.675 nM and the EC50 [18] was 0.86 nM. For the same molecule, the EC50 [19] was 0.357 nM and the EC50 [20] was 0.0955 nM.

B2: polatuzumab (antibody, V domains shown)
VH: EVQLVESGGGLVQPGGSLRLSCAASGYTFSSYWIEWVRQAPGKGLEWIGEILPGGGDTNYNEIFKGRATFSADTSKNTAYLQMNSLRAEDTAVYYCTRRVPIRLDYWGQGTLVTVSS
VL: DIQLTQSPSSLSASVGDRVTITCKASQSVDYEGDSFLNWYQQKPGKAPKLLIYAASNLESGVPSRFSGSGSGTDFTLTISSLQPEDFATYYCQQSNEDPLTFGQGTKVEIKR
B2 was tested, and the EC50 [7] was 2.24 nM, the EC50 [8] was 1.98 nM and the EC50 [9] was 1.44 nM. For the same molecule, the IC50 [10] was 0.19 nM, the “EC50 (read off the curve)” value [11] was ~0.9 nM and the EC50 [12] was 1.26 nM. It also gave an EC50 [21] of 0.238 nM, a Kd [22] of 0.417 nM and an EC50 [15] of 7.85 nM. For the same molecule, the EC50 [17] was 1.56 nM, the EC50 [18] was 1.78 nM and the EC50 [20] was 0.153 nM.

B3: ch23D8 (antibody, human IgG1, kappa, V domains shown)
VH: QSLEESGGGLVTPGGTLTLTCTVSGLSLSSNAINWVRQAPGKGLEWIGMIYSGGRIEYASWAKGRFTISKTSTTVDLKITSPTTEDTATYFCAKGMSPSAHSSDIWGPGTLVTVSA
VL: AYDMTQTPASVEVAVGGTVTIKCQASQSISDNLSWYQQKPGQPPKLLIYDASDLASGVPSRFSGSGSGTEFTLTISDLEPADAATYYCQQDWISSNVDNTFGGGTEVVVKR
notes: Rabbit/human chimeric IgG1 kappa; also called chimeric 23D8
Work on B3 yielded an EC50 [7] of 1.08 nM, an EC50 [8] of 0.921 nM and a koff [23] of 7.85e-05 s⁻¹. For the same molecule, the kon [23] was 245000 M⁻¹ s⁻¹, the EC50 [9] was 0.93 nM and the IC50 [10] was 0.33 nM. For the same molecule, the “EC50 (read off the curve)” value [11] was ~0.9 nM, the EC50 [12] was 1.06 nM and the EC50 [21] was 0.225 nM. The IC50 [13] was 0.57 nM, the “EC50 (read off the curve)” value [14] was ~0.3 nM and the EC50 [15] was 4.58 nM. For the same molecule, the “EC50 (read off the curve)” value [16] was ~0.1 nM, the Kd [24] was 0.32 nM and the EC50 [17] was 1.05 nM. For the same molecule, the EC50 [18] was 1.4 nM and the EC50 [20] was 0.15 nM.
